This is an account of results in paper PMC10070764, “S100B chaperone multimers suppress the formation of oligomers during Aβ42 aggregation” (Frontiers in Neuroscience, 2023).

Data set [1] addresses amyloid-β 1–42 (Aβ42) peptide (UniProt P05067 672-713). Put plainly: cell-based or functional assay.
Data set [2] concerns the molecule itself. Put plainly: SEC + other: electrophoresis; oligomeric state validation of the purified S100B dimer and tetramer preparations, as described (Figueira et al., 2022); conditions not given.

Chain of amyloid-β 1–42 (Aβ42) peptide (P05067 672-713): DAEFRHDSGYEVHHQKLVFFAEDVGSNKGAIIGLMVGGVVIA

B1: tetrameric S100B (natural protein, human, UniProt P04271 1-92, looked up)
chain: MSELEKAMVALIDVFHQYSGREGDKHKLKKSELKELINNELSHFLEEIKEQEVVDKVMETLDNDGDGECDFQEFMAFVAMVTTACHEFFEHE
notes: Same chain as m1, isolated as the tetramer; used in the aggregation assays in the Ca^2+-free (apo) state (1.1 mM EDTA); also called apo-S100B tetramer; tetrameric apo-S100B; source: E. coli BL21 (DE3) E. Cline Express, purified to homogeneity
Regarding B1, in data set [1], the “ThT-subtracted X-34 kinetic traces of Aβ42 (2 μM) aggregation: X-34 positive AβO relative to Aβ42 alone, apo-S100B tetramer:Aβ42 ratios up to 0.5 (effect already at 0.25)” value is 25%. The stoichiometry N (commonly a count of units in the complex or per binding partner) in data set [2] came out at 4.

B2: dimeric S100B (natural protein, human, UniProt P04271 1-92, looked up)
chain: B1 chain
notes: also called S100B-Ca^2+ dimer; dimeric S100B-Ca^2+; source: E. coli BL21 (DE3) E. Cline Express, purified to homogeneity
As to B2, in data set [2], the “stoichiometry N” value stood at 2.
